Laboratory results as given in paper PMC10199097, “Molecular mechanism of hyperactivation conferred by a truncation of TRPA1” (Nature Communications, 2023).

B1: wild type (WT) human TRPA1 (Transient Receptor Potential Ankyrin subtype 1) (natural protein, UniProt O75762 1-1119, looked up)
chain: MKRSLRKMWRPGEKKEPQGVVYEDVPDDTEDFKESLKVVFEGSAYGLQNFNKQKKLKRCDDMDTFFLHYAAAEGQIELMEKITRDSSLEVLHEMDDYGNTPLHCAVEKNQIESVKFLLSRGANPNLRNFNMMAPLHIAVQGMNNEVMKVLLEHRTIDVNLEGENGNTAVIIACTTNNSEALQILLKKGAKPCKSNKWGCFPIHQAAFSGSKECMEIILRFGEEHGYSRQLHINFMNNGKATPLHLAVQNGDLEMIKMCLDNGAQIDPVEKGRCTAIHFAATQGATEIVKLMISSYSGSVDIVNTTDGCHETMLHRASLFDHHELADYLISVGADINKIDSEGRSPLILATASASWNIVNLLLSKGAQVDIKDNFGRNFLHLTVQQPYGLKNLRPEFMQMQQIKELVMDEDNDGCTPLHYACRQGGPGSVNNLLGFNVSIHSKSKDKKSPLHFAASYGRINTCQRLLQDISDTRLLNEGDLHGMTPLHLAAKNGHDKVVQLLLKKGALFLSDHNGWTALHHASMGGYTQTMKVILDTNLKCTDRLDEDGNTALHFAAREGHAKAVALLLSHNADIVLNKQQASFLHLALHNKRKEVVLTIIRSKRWDECLKIFSHNSPGNKCPITEMIEYLPECMKVLLDFCMLHSTEDKSCRDYYIEYNFKYLQCPLEFTKKTPTQDVIYEPLTALNAMVQNNRIELLNHPVCKEYLLMKWLAYGFRAHMMNLGSYCLGLIPMTILVVNIKPGMAFNSTGIINETSDHSEILDTTNSYLIKTCMILVFLSSIFGYCKEAGQIFQQKRNYFMDISNVLEWIIYTTGIIFVLPLFVEIPAHLQWQCGAIAVYFYWMNFLLYLQRFENCGIFIVMLEVILKTLLRSTVVFIFLLLAFGLSFYILLNLQDPFSSPLLSIIQTFSMMLGDINYRESFLEPYLRNELAHPVLSFAQLVSFTIFVPIVLMNLLIGLAVGDIAEVQKHASLKRIAMQVELHTSLEKKLPLWFLRKVDQKSTIVYPNKPRSGGMLFHIFCFLFCTGEIRQEIPNADKSLEMEILKQKYRLKDLTFLLEKQHELIKLIIQKMEIISETEDDDSHCSFQDRFKKEQMEQRNSRWNTVLRAVKAKTHHLEP
notes: human TRPA1, wild type, 1119 amino acids; Plasmid details are in the Supplementary Information; also called WT TRPA1; WT hTRPA1; source: HEK293T, transfected, in lysate (in intact cells for proximity biotinylation)
B2: R919* human TRPA1 mutant (CRAMPT syndrome truncation) (domain or fragment, UniProt O75762 1-918, looked up)
chain: MKRSLRKMWRPGEKKEPQGVVYEDVPDDTEDFKESLKVVFEGSAYGLQNFNKQKKLKRCDDMDTFFLHYAAAEGQIELMEKITRDSSLEVLHEMDDYGNTPLHCAVEKNQIESVKFLLSRGANPNLRNFNMMAPLHIAVQGMNNEVMKVLLEHRTIDVNLEGENGNTAVIIACTTNNSEALQILLKKGAKPCKSNKWGCFPIHQAAFSGSKECMEIILRFGEEHGYSRQLHINFMNNGKATPLHLAVQNGDLEMIKMCLDNGAQIDPVEKGRCTAIHFAATQGATEIVKLMISSYSGSVDIVNTTDGCHETMLHRASLFDHHELADYLISVGADINKIDSEGRSPLILATASASWNIVNLLLSKGAQVDIKDNFGRNFLHLTVQQPYGLKNLRPEFMQMQQIKELVMDEDNDGCTPLHYACRQGGPGSVNNLLGFNVSIHSKSKDKKSPLHFAASYGRINTCQRLLQDISDTRLLNEGDLHGMTPLHLAAKNGHDKVVQLLLKKGALFLSDHNGWTALHHASMGGYTQTMKVILDTNLKCTDRLDEDGNTALHFAAREGHAKAVALLLSHNADIVLNKQQASFLHLALHNKRKEVVLTIIRSKRWDECLKIFSHNSPGNKCPITEMIEYLPECMKVLLDFCMLHSTEDKSCRDYYIEYNFKYLQCPLEFTKKTPTQDVIYEPLTALNAMVQNNRIELLNHPVCKEYLLMKWLAYGFRAHMMNLGSYCLGLIPMTILVVNIKPGMAFNSTGIINETSDHSEILDTTNSYLIKTCMILVFLSSIFGYCKEAGQIFQQKRNYFMDISNVLEWIIYTTGIIFVLPLFVEIPAHLQWQCGAIAVYFYWMNFLLYLQRFENCGIFIVMLEVILKTLLRSTVVFIFLLLAFGLSFYILLNLQDPFSSPLLSIIQTFSMMLGDINY
notes: human TRPA1 with the patients' nonsense mutation at R919 (c.2755C>T); lacks the final 201 of 1119 amino acids (second pore helix, S6 and the whole cytoplasmic C-terminus); also called R919* TRPA1; R919* hTRPA1; source: HEK293T, transfected, in lysate (in intact cells for proximity biotinylation)

Key:
[1] = molecular target: the molecule itself; assay: co-IP + SEC; GFP- and 3×FLAG-tagged subunits co-expressed in HEK293T cells; anti-FLAG immunoprecipitation, eluates analysed by fluorescence size exclusion chromatography (FSEC) of the GFP-tagged subunit; anti-FLAG blot of peak fractions
[2] = molecular target: B1; assay: pull-down; FLAG-MBP-WT and Strep-MBP-R919* hTRPA1 co-transfected; lysates tandem purified for Strep- then FLAG-tagged proteins; eluates probed with anti-MBP antibody, band intensities normalised to WT; conditions: partners not purified

stoichiometry N [2]	Binder	stoichiometry N [1]
	B1	4
1.3 R919* subunits per WT subunit	B2	
